This is an account of results in IntAct's records for PubMed 16530190.

First the molecules themselves.
B1: Actin-binding protein WASF1 (Rattus norvegicus (Rat)), Q5BJU7 (parent)
chain: MPLVKRNIDPRHLCHTALPRGIKNELECVTNISLANIIRQLSSLSKYAEDIFGELFNEAHSFSFRVNSLQERVDRLSVSVTQLDPKEEELSLQDITMRKAFRSSTIQDQQLFDRKTLPIPLQETYDVCEQPPPLNVLTPYRDDGKEGLKFYTNPSYFFDLWKEKMLQDTEDKRKEKRKQKQKNLDRPHEPEKVPRAPHDRRREWQKLAQGPELAEDDADLLHKHIEVANGPASHFETRPQTYVDHMDGSYSLSALPFSQMSELLSRAEERVLVRPHEPPPPPPMHAAGDARPTPTCVSSAAGLIENRPQSPAAGRTPVFVSPTPPPPPPPLPSALSTSSLRASMTSTPPPPVPPPPPPPAPALQAPAVPPPPAPLQIAPGVLHPAPPPIAPPLVQPSPPVARAAPVCETVPVHPLPQGEVQGLPPPPPPPPLPPPGIRPSSPVTVAALAHPPSGLHPTPSPAPGPHAPLMPPSPPSQVLPASEPKRHPSTLPVISDARSVLLEAIRKGIQLRKVEEQREQEAKHERIENDVATILSRRIAVEYSDSEDDSEFDEVDWLE

Variants of B1 are the subject of the first assay. The conditions noted are these: with gnai3_rat Gnai3, P08753.
Sequence of gnai3_rat Gnai3, P08753 (P08753 whole entry): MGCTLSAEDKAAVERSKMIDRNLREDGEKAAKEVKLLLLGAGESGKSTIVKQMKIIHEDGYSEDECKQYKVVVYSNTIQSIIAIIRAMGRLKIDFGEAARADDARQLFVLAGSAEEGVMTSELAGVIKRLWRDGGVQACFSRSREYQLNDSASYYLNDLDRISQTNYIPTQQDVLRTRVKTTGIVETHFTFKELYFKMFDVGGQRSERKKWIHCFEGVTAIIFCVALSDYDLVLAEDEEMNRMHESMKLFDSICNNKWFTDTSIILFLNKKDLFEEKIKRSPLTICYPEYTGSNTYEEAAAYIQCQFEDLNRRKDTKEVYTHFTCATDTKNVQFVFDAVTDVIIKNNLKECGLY
Turning to Q517A, the “effect of a mutation on the interaction” value was “decreasing interaction”.

Variants of B1 are the subject of a further assay. The conditions noted are these: with actb_rat Actb.
For Q517A, the “effect of a mutation on the interaction” value is reported as “decreasing interaction”.

In another assay the parent is B1. Particulars: with arpc2_human ARPC2, O15144.
Consider Q517A, for which the “effect of a mutation on the interaction” value is on record as “decreasing interaction”.
